This assay has as its target T1, GST-Nup358-MC2 (2012–2771 aa) (human, UniProt P49792 2012-2771).
T1 construct: also called GST-tagged Nup358-MC2; source: E. coli BL21 CodonPlus RIL (DE3), purified (Glutathione Agarose Beads)
The assay can be described thus: co-IP; in vitro: 2 µM MBP protein incubated with 1.5 µM GST-Nup358-MC2 in 25 mM Tris-HCl pH 7.4, 150 mM NaCl, 5% glycerol, 0.01% Tween20, 2 h, 4 °C; MBP proteins immunoprecipitated with anti-MBP antibody on Protein G Dynabeads; western blot for Nup358-MC2. Particulars: both partners purified. In general terms: In western blotting, separated proteins are transferred to a membrane and probed.

T1 sequence (P49792 2012-2771): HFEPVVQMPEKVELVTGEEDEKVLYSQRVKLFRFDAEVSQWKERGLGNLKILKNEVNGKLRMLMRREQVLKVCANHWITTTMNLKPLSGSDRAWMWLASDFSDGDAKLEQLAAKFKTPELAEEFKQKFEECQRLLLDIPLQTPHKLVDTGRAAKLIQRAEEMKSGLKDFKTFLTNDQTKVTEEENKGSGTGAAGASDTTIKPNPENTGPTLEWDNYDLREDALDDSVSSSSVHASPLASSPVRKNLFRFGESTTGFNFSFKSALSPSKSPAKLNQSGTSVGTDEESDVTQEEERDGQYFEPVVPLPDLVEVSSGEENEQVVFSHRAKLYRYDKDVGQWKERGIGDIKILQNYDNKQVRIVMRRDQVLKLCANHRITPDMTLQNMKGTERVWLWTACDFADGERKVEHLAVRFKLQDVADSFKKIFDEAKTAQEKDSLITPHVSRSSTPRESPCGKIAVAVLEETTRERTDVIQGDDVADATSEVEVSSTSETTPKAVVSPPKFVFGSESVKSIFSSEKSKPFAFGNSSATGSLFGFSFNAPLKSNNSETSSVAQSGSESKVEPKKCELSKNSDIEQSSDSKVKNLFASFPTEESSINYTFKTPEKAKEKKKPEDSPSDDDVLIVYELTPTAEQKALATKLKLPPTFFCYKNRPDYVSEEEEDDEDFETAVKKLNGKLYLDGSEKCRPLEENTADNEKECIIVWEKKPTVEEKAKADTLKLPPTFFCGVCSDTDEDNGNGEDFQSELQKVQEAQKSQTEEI

B1: MBP-PTPIP51 (36–470 aa) (domain or fragment, UniProt Q96TC7 36-470, looked up)
chain: KRTQRHGRSQSLPNSLDYTQTSDPGRHVMLLRAVPGGAGDASVLPSLPREGQEKVLDRLDFVLTSLVALRREVEELRSSLRGLAGEIVGEVRCHMEENQRVARRRRFPFVRERSDSTGSSSVYFTASSGATFTDAESEGGYTTANAESDNERDSDKESEDGEDEVSCETVKMGRKDSLDLEEEAASGASSALEAGGSSGLEDVLPLLQQADELHRGDEQGKREGFQLLLNNKLVYGSRQDFLWRLARAYSDMCELTEEVSEKKSYALDGKEEAEAALEKGDESADCHLWYAVLCGQLAEHESIQRRIQSGFSFKEHVDKAIALQPENPMAHFLLGRWCYQVSHLSWLEKKTATALLESPLSATVEDALQSFLKAEELQPGFSKAGRVYISKCYRELGKNSEARWWMKLALELPDVTKEDLAIQKDLEELEVILRD
notes: PTPIP51 (RMDN3), residues 36-470, cloned into pMAL-c2; source: E. coli BL21 Star (DE3), purified (Ni-NTA, Amylose resin); not shown: MBP, N-terminal, kept
With B1, the binding result is reported as “binds”.

For the origin of these results see paper PMC11466962, “Nup358 restricts ER-mitochondria connectivity by modulating mTORC2/Akt/GSK3β signalling” (EMBO Reports, 2024).
